Assay results published in US20250197496A1.
Residue numbers refer to the chain shown, from its start. One block for each binder: values may come before it.

Key:
[1] = target: T1, human ULBP2 (26-216) P41A on yeast (human) (UniProt Q9BZM5); experiment: yeast display FACS, 1 nM
T1 sequence: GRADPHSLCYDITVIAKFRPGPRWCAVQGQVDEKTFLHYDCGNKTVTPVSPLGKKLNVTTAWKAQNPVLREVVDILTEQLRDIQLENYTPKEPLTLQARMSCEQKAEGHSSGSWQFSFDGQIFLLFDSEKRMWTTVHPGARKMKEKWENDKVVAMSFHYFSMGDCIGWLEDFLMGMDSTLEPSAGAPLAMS

[2] = target: T2, human ULBP2 (26-216) R44A on yeast (human) (UniProt Q9BZM5); experiment: yeast display FACS, 1 nM
T2 sequence: T1 sequence with A16P, R19A

[3] = target: cynomolgus ULBP2 (26-216) displayed on yeast (cynomolgus); experiment: flow cytometry on yeast displaying ULBP2; unstained control 385
[4] = target: Cynomolgus ULBP2 (26-216) fused to hIgG1 Fc (cynomolgus; human); experiment: SPR, biotinylated antigen on SA chip

Gate 1 Freq. of Total [1]: 0.052%
Gate 2 Freq. of Total [1]: 0.32%
Gate 3 Freq. of Total [1]: 2.61%
Gate 1 Freq. of Total [2]: 0.19%
Gate 2 Freq. of Total [2]: 0.8%
Gate 3 Freq. of Total [2]: 1.58%
MFI [3]: 551
B1: A06 (antibody, V domains shown)
VH: EVQLVQSGAEVKKPGESLKISCKGSGYAFSTSWMNWVRQMPGKGLEWMGRIYPGDGDTNYNGNFKGQVTISADKSISTAYLQWSSLKASDTAMYYCARGGELRLEAMDSWGQGTLVTVSS
VL: EIVMTQSPATLSLSPGERITLSCSASSSIHSNYLHWYQQKPGQAPRLLIYRTSNLASGIPARFSGSGSGTDFTLTISSLQPEDFAVYYCQQGFSIPFTFGQGTKLEIK

Kd [4]: 0.534 nM
koff [4]: 0.00182 s⁻¹
kon [4]: 3.41e+06 M⁻¹ s⁻¹
Gate 1 Freq. of Total [1]: 0.098%
Gate 2 Freq. of Total [1]: 0.41%
Gate 3 Freq. of Total [1]: 4.73%
MFI [3]: 11700
B2: E12 (antibody, V domains shown)
VH: QVQLVQSGAEVKKPGASVKVSCKASGYTFTNYDINWVRQAPGQGLEWMGWIYPGDGSTYYNEKFKGRVTMTRDTSTSTVYMELSSLRSEDTAVYYCARSGDYGLYYFDYWGQGTLVTVSS
VL: EIVLTQSPATLSLSPGERATLSCRASQSIGTSIHWYQQKPGQAPRLLIYFASESISGIPARFSGSGSGTDFTLTISSLEPEDFAVYYCQQSNSWPLYTFGGGTKVEIK
